Values quoted from earlier work as cited in article PMC5493423.

System: CD31 (protein used for the reported Kd)
Details: biotin; PBMCs at 1e7 cells/ml, 100 ul, aptamer 30 min at 4 C, then flow cytometry staining buffer; column in APTSCI binding buffer (composition not given)

CD31 aptamer, biotinylated (APTSCI CD31-2196BCI)
Kd: 1.14 nM
